Experimental data taken from article PMC3377666.

Target: recombinant human Pol δ core+p68 trimer (p125/p50/p68) (human) (UniProt P28340)
Sequence (P28340 whole entry, stated change not applied, chain 1 of 3): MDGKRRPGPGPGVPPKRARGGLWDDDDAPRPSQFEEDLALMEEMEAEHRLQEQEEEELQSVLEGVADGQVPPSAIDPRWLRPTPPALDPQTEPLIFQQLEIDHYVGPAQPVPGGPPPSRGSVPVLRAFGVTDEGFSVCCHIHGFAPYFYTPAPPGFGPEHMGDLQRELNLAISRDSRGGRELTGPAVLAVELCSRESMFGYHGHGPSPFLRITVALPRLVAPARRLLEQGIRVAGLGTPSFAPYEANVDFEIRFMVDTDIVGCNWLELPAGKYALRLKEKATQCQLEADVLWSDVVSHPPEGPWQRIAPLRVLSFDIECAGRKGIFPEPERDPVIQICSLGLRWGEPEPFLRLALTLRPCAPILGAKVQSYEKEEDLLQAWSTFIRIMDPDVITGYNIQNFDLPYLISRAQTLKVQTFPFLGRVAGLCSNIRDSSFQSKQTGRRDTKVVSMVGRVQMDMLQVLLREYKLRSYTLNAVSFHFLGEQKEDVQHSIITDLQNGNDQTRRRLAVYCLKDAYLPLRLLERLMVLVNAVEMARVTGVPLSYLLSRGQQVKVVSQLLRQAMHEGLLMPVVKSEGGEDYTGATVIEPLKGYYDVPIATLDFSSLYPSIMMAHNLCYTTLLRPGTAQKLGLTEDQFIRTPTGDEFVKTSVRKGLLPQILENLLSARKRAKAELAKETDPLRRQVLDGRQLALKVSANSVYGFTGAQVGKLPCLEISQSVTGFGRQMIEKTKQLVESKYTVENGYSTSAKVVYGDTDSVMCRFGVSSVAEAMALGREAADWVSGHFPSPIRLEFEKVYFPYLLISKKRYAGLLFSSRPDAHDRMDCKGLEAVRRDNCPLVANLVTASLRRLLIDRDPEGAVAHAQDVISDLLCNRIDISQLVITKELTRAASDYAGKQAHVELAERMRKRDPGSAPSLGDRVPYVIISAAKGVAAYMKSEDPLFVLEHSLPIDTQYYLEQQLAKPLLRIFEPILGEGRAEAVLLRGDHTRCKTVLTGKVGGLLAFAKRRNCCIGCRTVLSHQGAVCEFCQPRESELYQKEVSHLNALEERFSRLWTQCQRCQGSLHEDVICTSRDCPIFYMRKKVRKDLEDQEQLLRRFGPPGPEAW
Sequence (P49005 whole entry, stated change not applied, chain 2 of 3, further chain): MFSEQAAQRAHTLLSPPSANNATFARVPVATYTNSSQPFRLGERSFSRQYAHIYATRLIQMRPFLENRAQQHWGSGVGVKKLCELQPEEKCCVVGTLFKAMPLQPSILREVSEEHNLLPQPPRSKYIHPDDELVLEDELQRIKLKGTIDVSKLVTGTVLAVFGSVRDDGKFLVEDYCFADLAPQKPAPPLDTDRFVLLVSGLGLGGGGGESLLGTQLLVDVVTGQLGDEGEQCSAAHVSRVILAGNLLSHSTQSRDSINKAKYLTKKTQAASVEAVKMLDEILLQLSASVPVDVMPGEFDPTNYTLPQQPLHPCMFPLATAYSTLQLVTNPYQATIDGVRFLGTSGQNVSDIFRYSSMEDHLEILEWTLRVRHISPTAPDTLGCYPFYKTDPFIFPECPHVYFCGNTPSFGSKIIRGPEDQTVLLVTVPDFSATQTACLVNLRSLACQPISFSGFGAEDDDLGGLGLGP
Sequence (Q15054 whole entry, stated change not applied, chain 3 of 3, further chain): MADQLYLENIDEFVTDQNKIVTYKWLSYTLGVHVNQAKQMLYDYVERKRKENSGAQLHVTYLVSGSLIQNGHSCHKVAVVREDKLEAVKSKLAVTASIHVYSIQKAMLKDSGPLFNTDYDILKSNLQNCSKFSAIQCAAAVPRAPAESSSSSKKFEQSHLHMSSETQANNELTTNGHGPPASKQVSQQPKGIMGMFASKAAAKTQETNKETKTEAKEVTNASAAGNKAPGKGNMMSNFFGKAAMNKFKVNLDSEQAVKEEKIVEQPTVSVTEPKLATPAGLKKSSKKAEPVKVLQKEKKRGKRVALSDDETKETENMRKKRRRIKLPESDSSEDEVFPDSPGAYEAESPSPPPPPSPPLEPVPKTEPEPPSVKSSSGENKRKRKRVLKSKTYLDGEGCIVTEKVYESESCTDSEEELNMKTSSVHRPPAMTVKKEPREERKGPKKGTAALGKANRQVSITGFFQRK

restoration of Pol δ activity on poly(dA)/oligo(dT) with PCNA, core+p68 (200 fmoles) pre-incubated with 0-400 ng p12 at 4°C for 30 min, against Pol δ4: 80% | restoration of Pol δ activity on singly primed M13 DNA, core+p68 (50 fmoles) pre-incubated with 0-400 ng p12, against Pol δ4: 96%
B1: non-tagged recombinant p12 (natural protein)
chain: MGRKRLITDSYPVVKRREGPAGHSKGELAPELGEEPQPRDEEEAELELLRQFDLAWQYGPCTGITRLQRWCRAKQMGLEPPPEVWQVLKTHPGDPRFQCSLWHLYPL
